First the molecules themselves.
B1: peptide homodimer based on the peptide monomer amino acid sequence of SEQ ID NO: 29, DIG linker (peptide)
peptide: Ac-WDCLVDRPGRRQCVRLEK-NH2
modifications: disulfide 3-13 (inferred); also: homodimer via diglycolic acid (DIG) linker, site not given here
B2: peptide homodimer based on the peptide monomer amino acid sequence of SEQ ID NO: 31, DIG linker (peptide)
peptide: Ac-WDCLVDRPGRRQCVKLER-NH2
modifications: disulfide 3-13 (inferred); also: homodimer via diglycolic acid (DIG) linker, site not given here
B3: peptide homodimer based on the peptide monomer amino acid sequence of SEQ ID NO: 30, DIG linker (peptide)
peptide: Ac-WDCLVDRPGRRQCVRLERK-NH2
modifications: disulfide 3-13 (inferred); also: homodimer via diglycolic acid (DIG) linker, site not given here
B4: peptide monomer based on the amino acid sequence of SEQ ID NO: 22 conjugated to a DIG linker moiety (peptide)
peptide: Ac-WDCLDRPGRRQCVK-NH2
modifications: disulfide 3-12 (inferred); also: DIG linker moiety conjugated, site not given here
B5: peptide homodimer based on the monomer amino acid sequence of SEQ ID NO: 22, DIG linker (peptide)
peptide: Ac-WDCLDRPGRRQCVK-NH2
modifications: disulfide 3-12 (inferred); also: homodimer via diglycolic acid (DIG) linker, site not given here

Values joined by “and” are separate entries in the source; they are usually repeats but may differ in a detail not shown here. Equal entries are not always repeated. Numbered stars: 1 amine (or outer) side, 2 acyl side, 3 side chain; on linkers, the order of the positions; unused ones are H or OH. Bridge positions count the residues as written; N and C are the ends. Peptide text beside a SMILES is read from it. I, II: the chains in the order shown. Diglycolyl = O=C(COCC(=O)[*:2])[*:1]; DIG = diglycolic acid linker Some results are limits rather than exact numbers.

The term IC50 denotes the concentration at which inhibition is half-maximal. As a reminder, the EC50 is the concentration at which the effect is half-maximal. Read a low EC50 as an effect from little substance.

One test has as its target TRAIL R2 receptor on HCT-116 or Jurkat cells (UniProt O14763 56-440, limits assumed). As to the kind of experiment: cell-based or functional assay.
Conditions: not given
With Ac-WDCLDNRIGRRQCVKL-NH2 (disulfide 3-13; also: homotrimer via TSAT linker, site not given here) [peptide homotrimer based on the peptide monomer sequence of SEQ ID NO: 19, TSAT linker], the “EC50, apoptotic activity in HCT-116 proliferation assay (MTT)” value is ~0.48 µM. Turning to B1, the “EC50, Jurkat proliferation assay (apoptosis, MTT)” value lay in the range of 1.3 to 1.66 µM. Turning to B2, the “EC50, Jurkat proliferation assay (apoptosis, MTT)” value was > 33 µM. Same read-out and setting: next, B3: 0.611 to 1.09 µM. Still for that read-out and setting: next, Ac-WDCLDNRIGRRQCVKL-NH2 (disulfide 3-13; also: homodimer via IPA linker, site not given here) [peptide homodimer based on the peptide monomer amino acid sequence of SEQ ID NO: 19, IPA linker]: 1.4 to 4.02 µM; Ac-WDCLDNRIGRRQCVKL-NH2 (disulfide 3-13; also: homodimer via DOD linker, site not given here) [peptide homodimer based on the peptide monomer amino acid sequence of SEQ ID NO: 19, DOD linker]: 2 to 4.41 µM.

Take Ac-WDCLDNRIGRRQCVK(DIG)L-NH2 (disulfide 3-13; also: homodimer joined through DIG linker) [peptide homodimer based on the monomer amino acid sequence of SEQ ID NO: 19, DIG linker]: the “EC50, apoptotic activity in HCT-116 proliferation assay (MTT)” value is ~1.62 µM.

The next test addresses T1, human TRAIL R2 (Homo sapiens, UniProt O14763).
T1 construct: purchased R&D Systems, Minneapolis, Minn
As to the kind of experiment: AlphaQuest TRAIL R2 receptor binding competition assay (AlphaScreen, biotinylated TRAIL ligand vs TRAIL R2-Fc). The note with it: competition with biotinylated TRAIL ligand; single values and ranges over assays; read-out: binding activity (IC50). The source says:
Laser excitation (680 nm) of a photosensitizer in the donor bead generates singlet state oxygen molecules, which react with a chemiluminescer in the acceptor bead to generate a detectable light signal (520-620 nm). Because the singlet O2 molecules have an extremely short half-life (i.e., t ½), a signal is generated only when the donor and acceptor beads are brought into close proximity, by TRAIL binding to the R2 receptor. The presence of unlabeled test peptide that competes with TRAIL for binding to the R2 receptor will prevent this binding, resulting in a measurable decrease in light emission.
Recombinant human TRAIL R2-Fc fusion protein (R&D Systems, Minneapolis, Minn.) is diluted in AlphaQuest® buffer to a concentration of 600 pM, pre-mixed with 1.9 μL Protein A-coated acceptor beads and 1.9 μL streptavidin-coated donor beads (Perkin-Elmer®, Waltham, Mass.), then 2 μL is added to each well of the assay plate. […] The plates are sealed with adhesive sealing film and covered with aluminum foil, centrifuged at 600 rpm for 30 seconds and incubated overnight in the dark. […] The raw data are analyzed using GraphPad Prism® software (La Jolla, Calif.) to calculate IC50 values from a 4-parameter logistic equation.
(In general: Alpha assays give light when donor and acceptor beads are brought close together.)
Take `CC[C@H](C)[C@@H]1NC(=O)[C@H](CCCNC(=N)N)NC(=O)[C@H](CC(N)=O)NC(=O)[C@H](CC(=O)O)NC(=O)[C@H](CC(C)C)NC(=O)[C@@H](NC(=O)[C@H](CC(=O)O)NC(=O)[C@H](Cc2c[nH]c3ccccc23)NC(C)=O)CSSC[C@@H](C(=O)N[C@H](C(=O)N[C@@H](CCCNC(=N)N)C(N)=O)C(C)C)NC(=O)[C@H](CCC(N)=O)NC(=O)[C@H](CCCNC(=N)N)NC(=O)[C@H](CCCCNC(=O)COCC(=O)NCCCC[C@@H]2NC(=O)CNC(=O)[C@H]([C@@H](C)CC)NC(=O)[C@H](CCCNC(=N)N)NC(=O)[C@H](CC(N)=O)NC(=O)[C@H](CC(=O)O)NC(=O)[C@H](CC(C)C)NC(=O)[C@@H](NC(=O)[C@H](CC(=O)O)NC(=O)[C@H](Cc3c[nH]c4ccccc34)NC(C)=O)CSSC[C@@H](C(=O)N[C@H](C(=O)N[C@@H](CCCNC(=N)N)C(N)=O)C(C)C)NC(=O)[C@H](CCC(N)=O)NC(=O)[C@H](CCCNC(=N)N)NC2=O)NC(=O)CNC1=O` [SEQ ID NO: 33 homodimer] (I: Ac-WDCLDNRIGKRQCVR-NH2 / II: Ac-WDCLDNRIGKRQCVR-NH2; disulfide I:3-I:13, II:3-II:13; linker I:10-II:10 via Diglycolyl): the IC50 is 0.025 to 0.092 nM and ~0.061 nM. Turning to `CC[C@H](C)[C@@H]1NC(=O)[C@H](CCCNC(=N)N)NC(=O)[C@H](CC(N)=O)NC(=O)[C@H](CC(=O)O)NC(=O)[C@H](CC(C)C)NC(=O)[C@@H](NC(=O)[C@H](CC(=O)O)NC(=O)[C@H](Cc2c[nH]c3ccccc23)NC(C)=O)CSSC[C@@H](C(=O)N[C@H](C(=O)N[C@@H](CCCNC(=N)N)C(N)=O)C(C)C)NC(=O)[C@H](CCC(N)=O)NC(=O)[C@H](CCCNC(=N)N)NC(=O)[C@H](CCCCN)NC(=O)CNC1=O` [SEQ ID NO: 33 monomer] (Ac-WDCLDNRIGKRQCVR-NH2; disulfide 3-13), the IC50 lay in the range of 200 to 5700 nM.

`CC[C@H](C)[C@@H]1NC(=O)[C@H](CCCNC(=N)N)NC(=O)[C@H](CC(N)=O)NC(=O)[C@H](CC(=O)O)NC(=O)[C@H](CC(C)C)NC(=O)[C@@H](NC(=O)[C@H](CC(=O)O)NC(C)=O)CSSC[C@@H](C(=O)N[C@H](C(=O)N[C@@H](CCCCN)C(=O)N[C@@H](CC(C)C)C(N)=O)C(C)C)NC(=O)[C@H](CCC(N)=O)NC(=O)[C@H](CCCNC(=N)N)NC(=O)[C@H](CCCNC(=N)N)NC(=O)CNC1=O` [SEQ ID NO: 25 monomer] (Ac-DCLDNRIGRRQCVKL-NH2; disulfide 2-12): the IC50 is ≥ 100000 nM. The same measure, in the same setting: next, `CC(=O)N[C@@H](Cc1c[nH]c2ccccc12)C(=O)N[C@@H](CC(=O)O)C(=O)N[C@H]1CSSC[C@@H](C(=O)N[C@H](C(=O)N[C@@H](CCCCN)C(N)=O)C(C)C)NC(=O)[C@H](CCC(N)=O)NC(=O)[C@H](CCCNC(=N)N)NC(=O)[C@H](CCCNC(=N)N)NC(=O)CNC(=O)[C@@H]2CCCN2C(=O)[C@H](CCCNC(=N)N)NC(=O)[C@H](CC(=O)O)NC(=O)[C@H](CC(C)C)NC1=O` [SEQ ID NO: 22 monomer] (Ac-WDCLDRPGRRQCVK-NH2; disulfide 3-12): 3550 to 10700 nM.

A further test has as its system Jurkat cells.
Test: not given
The format is cell-based.
Conditions: not given
How it is done:
The apoptotic activity of test peptides is measured using a Jurkat proliferation assay.
Jurkat cells are obtained from the American Type Culture Collection (ATCC, Manassas, Va.) and are maintained in RPMI-1640 medium supplemented with 10% FBS, 100 U/mL penicillin, and 100 […] (Growth Medium). […] Cells are resuspended at a density of 1×10^6 cells/mL in Growth Medium, and 50 μl cells is added to each well of the assay plates. The plates are incubated in a 37° C., 5% CO2 incubator for 24-48 hours. Proliferation is assessed by adding 10 μL of MTT stock solution (ATCC, Manassas, Va.) to the wells. The plates are incubated in a 37° C., 5% CO2 incubator for another 2-4 hours, followed by the addition of 100 μL of 20% SDS with 0.01 N HCl. After incubation overnight in a 37° C., 5% CO2 incubator, the plates are quantified by reading the optical density at a wavelength of 595 nm (OD595) in a SpectraMax® M5 microplate reader (Molecular Devices, Sunnyvale, Calif.). The data are analyzed using GraphPad Prism® software (La Jolla, Calif.) to calculate IC50 values from a 4-parameter logistic equation.
For `CC(=O)N[C@@H](Cc1c[nH]c2ccccc12)C(=O)N[C@@H](CC(=O)O)C(=O)N[C@H]1CSSC[C@@H](C(=O)N[C@H](C(=O)N[C@@H](CCCNC(=N)N)C(=O)N[C@@H](CC(C)C)C(=O)N[C@@H](CCC(=O)O)C(=O)N[C@@H](CCCNC(=N)N)C(=O)N[C@@H](CCCCNC(=O)COCC(=O)NCCCC[C@H](NC(=O)[C@H](CCCNC(=N)N)NC(=O)[C@H](CCC(=O)O)NC(=O)[C@H](CC(C)C)NC(=O)[C@H](CCCNC(=N)N)NC(=O)[C@@H](NC(=O)[C@@H]2CSSC[C@H](NC(=O)[C@H](CC(=O)O)NC(=O)[C@H](Cc3c[nH]c4ccccc34)NC(C)=O)C(=O)N[C@@H](CC(C)C)C(=O)N[C@@H](C(C)C)C(=O)N[C@@H](CC(=O)O)C(=O)N[C@@H](CCCNC(=N)N)C(=O)N3CCC[C@H]3C(=O)NCC(=O)N[C@@H](CCCNC(=N)N)C(=O)N[C@@H](CCCNC(=N)N)C(=O)N[C@@H](CCC(N)=O)C(=O)N2)C(C)C)C(N)=O)C(N)=O)C(C)C)NC(=O)[C@H](CCC(N)=O)NC(=O)[C@H](CCCNC(=N)N)NC(=O)[C@H](CCCNC(=N)N)NC(=O)CNC(=O)[C@@H]2CCCN2C(=O)[C@H](CCCNC(=N)N)NC(=O)[C@H](CC(=O)O)NC(=O)[C@H](C(C)C)NC(=O)[C@H](CC(C)C)NC1=O` [SEQ ID NO: 30 homodimer] (I: Ac-WDCLVDRPGRRQCVRLERK-NH2 / II: Ac-WDCLVDRPGRRQCVRLERK-NH2; disulfide I:3-I:13, II:3-II:13 (inferred); linker I:19-II:19 via Diglycolyl (inferred)), the EC50 fell in the range of 0.611 to 1.09 µM.

A further test addresses T2, Recombinant human TRAIL R2-Fc fusion protein (R&D Systems) (human, UniProt O14763 52-182, limits assumed).
T2 construct: Bought from R&D Systems; held on protein A-coated acceptor beads in the AlphaQuest/AlphaScreen assay; also called TRAIL R2 receptor; R2 receptor; not shown: Fc part of the bought fusion protein
As to the kind of experiment: AlphaQuest competition: displaces biotinylated TRAIL ligand from human TRAIL R2-Fc.
Conditions: not given
As for the experimental part: The plates are sealed with adhesive sealing film and covered with aluminum foil, centrifuged at 600 rpm for 30 seconds and incubated overnight in the dark. […] The raw data are analyzed using GraphPad Prism® software (La Jolla, Calif.) to calculate IC₅₀ values from a 4-parameter logistic equation.
As to Ac-DCLDNRIGRRQCVKL-NH2 (disulfide 2-12 (inferred)) [peptide monomer based on the amino acid sequence of SEQ ID NO: 25], the IC50 was ≥ 100 µM. Turning to Ac-GGSWDCLDNRIGRRQCVKL-NH2 (disulfide 6-16 (inferred)) [peptide monomer based on the amino acid sequence of SEQ ID NO: 20], the IC50 is ~0.303 µM.

Regarding B4, the IC50 is 1.2 to 2.3 µM. B5: the IC50 was 0.0062 µM. The same measure, in the same setting: the same measure for Ac-WDCLDNRIGRRQCVK-NH2 (disulfide 3-13 (inferred)) [peptide monomer based on the amino acid sequence of SEQ ID NO: 28]: ~0.08 µM.

Values taken from patent US20090131317A1, “COMPOUNDS AND PEPTIDES THAT BIND THE TRAIL RECEPTOR” (AFFYMAX, INC., priority 2007, published 2009).
